Experiment [1] has as its system sister chromatid separation and segregation in Xenopus egg extracts. Nature of the experiment: Anaphase and mitotic exit in CSF-arrested Xenopus egg extracts with sperm nuclei. The note with it: added 10 minutes before Ca2+.
The next experiment has as its target T1, separase (Homo sapiens, UniProt Q14674).
T1 construct: Full-length human separase was PCR-amplified from a human fetal thymus cDNA library; made in house
T1 sequence (Q14674 1-1486): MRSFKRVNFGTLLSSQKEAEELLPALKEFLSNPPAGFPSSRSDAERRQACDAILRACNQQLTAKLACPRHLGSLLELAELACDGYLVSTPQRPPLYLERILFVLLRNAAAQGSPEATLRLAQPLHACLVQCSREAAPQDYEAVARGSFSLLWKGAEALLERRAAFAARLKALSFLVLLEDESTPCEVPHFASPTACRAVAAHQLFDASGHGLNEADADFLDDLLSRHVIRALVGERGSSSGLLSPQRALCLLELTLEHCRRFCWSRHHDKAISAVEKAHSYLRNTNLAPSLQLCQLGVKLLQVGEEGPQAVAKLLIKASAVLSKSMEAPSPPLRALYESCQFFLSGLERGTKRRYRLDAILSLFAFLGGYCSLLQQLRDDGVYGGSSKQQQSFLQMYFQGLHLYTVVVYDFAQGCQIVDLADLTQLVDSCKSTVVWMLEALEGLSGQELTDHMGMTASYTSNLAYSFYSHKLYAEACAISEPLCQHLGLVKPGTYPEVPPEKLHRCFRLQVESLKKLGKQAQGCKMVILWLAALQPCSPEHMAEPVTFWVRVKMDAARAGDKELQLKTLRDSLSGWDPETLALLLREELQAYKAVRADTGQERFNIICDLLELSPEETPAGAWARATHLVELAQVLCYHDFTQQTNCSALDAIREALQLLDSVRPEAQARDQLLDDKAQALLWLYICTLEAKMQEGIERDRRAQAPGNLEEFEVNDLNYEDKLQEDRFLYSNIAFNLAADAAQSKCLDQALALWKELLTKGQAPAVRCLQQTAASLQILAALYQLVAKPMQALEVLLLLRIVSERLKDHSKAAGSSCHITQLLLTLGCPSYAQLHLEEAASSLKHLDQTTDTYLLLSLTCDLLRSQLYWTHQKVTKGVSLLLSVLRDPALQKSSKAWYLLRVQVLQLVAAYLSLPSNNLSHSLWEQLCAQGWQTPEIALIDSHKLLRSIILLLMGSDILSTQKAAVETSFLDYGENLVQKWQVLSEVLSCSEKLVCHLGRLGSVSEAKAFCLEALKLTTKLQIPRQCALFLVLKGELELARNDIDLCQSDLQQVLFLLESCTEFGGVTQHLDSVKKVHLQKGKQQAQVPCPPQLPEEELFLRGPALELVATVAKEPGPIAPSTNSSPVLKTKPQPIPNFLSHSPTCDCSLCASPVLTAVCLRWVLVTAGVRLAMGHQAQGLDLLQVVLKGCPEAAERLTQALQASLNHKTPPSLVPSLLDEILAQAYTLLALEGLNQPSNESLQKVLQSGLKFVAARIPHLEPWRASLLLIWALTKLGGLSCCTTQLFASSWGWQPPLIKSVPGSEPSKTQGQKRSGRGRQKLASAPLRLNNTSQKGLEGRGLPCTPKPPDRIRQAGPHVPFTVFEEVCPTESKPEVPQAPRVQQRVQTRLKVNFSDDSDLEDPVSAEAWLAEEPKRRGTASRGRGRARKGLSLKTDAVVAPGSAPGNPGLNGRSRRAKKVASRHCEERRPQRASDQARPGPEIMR
T1 sequence (Q14674 1536-2120): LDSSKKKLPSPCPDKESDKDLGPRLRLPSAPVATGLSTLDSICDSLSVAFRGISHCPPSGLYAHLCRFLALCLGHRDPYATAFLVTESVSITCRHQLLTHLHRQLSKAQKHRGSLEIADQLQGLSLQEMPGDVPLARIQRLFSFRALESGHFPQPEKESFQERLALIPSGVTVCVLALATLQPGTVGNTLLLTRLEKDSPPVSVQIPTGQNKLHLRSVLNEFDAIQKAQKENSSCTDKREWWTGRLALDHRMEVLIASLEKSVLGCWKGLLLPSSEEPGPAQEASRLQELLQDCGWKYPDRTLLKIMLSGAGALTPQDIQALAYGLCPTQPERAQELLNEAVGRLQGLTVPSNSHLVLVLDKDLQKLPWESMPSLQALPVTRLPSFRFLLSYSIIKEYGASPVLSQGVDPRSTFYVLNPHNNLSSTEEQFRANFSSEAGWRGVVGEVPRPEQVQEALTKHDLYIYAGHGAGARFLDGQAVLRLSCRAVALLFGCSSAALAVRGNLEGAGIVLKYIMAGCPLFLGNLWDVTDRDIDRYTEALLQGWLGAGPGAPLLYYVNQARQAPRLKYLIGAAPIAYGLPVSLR
As to the kind of experiment: Re-inhibition of pre-activated separase by recombinant securin (cohesin hSCC1 cleavage). The format is biochemical. Particulars: separase 4 nM, one hour on ice. As for the experimental part:
FIGS. 7A-7C depict the independent inhibition of separase activity by phosphorylation of separase and by binding of securin. (A) depicts a Western blot (upper panel) and cohesin^hSCC1 cleavage activity using isolated chromosomes as substrate (lower panel). Lane 2: Consecutive treatment of separase with high-Δ90 extract twice. (B) depicts separase that had been pre-activated in low-Δ90 extract that was eluted and incubated with recombinant securin (lanes 2 and 3) or reference buffer (lane 1) for one hour on ice. Subsequently, its cleavage activity towards in vitro translated ^35S-cohesin^hSCC1 was tested (upper panel). The separase concentration in each reaction was 4 nM, as estimated by Coomassie staining. To compare wild type separase with PM-2/4 mutant separase in its ability to bind securin the same experiment was repeated with PM-2/4 (lower panel). Roughly equal separase concentrations in both cases were assured by comparative immunoblotting (see FIG. 4B, lanes 15 and 17). (C) depicts a model for the dual inhibition of separase in metaphase and its activation at anaphase onset. PPase denotes an unknown protein phosphatase that is proposed to act on phosphorylated separase.
To determine whether securin can inhibit separase independent of the phosphorylation state of separase, and whether separase that has already been activated and has therefore cleaved itself be re-inhibited by either of the two inhibitory mechanisms, active separase was generated by treating a securin/separase complex with a low-Δ90 extract (L; FIG. 7) to degrade securin and dephosphorylate separase. […] Active separase on beads was then incubated with either recombinant securin or a high-Δ90 extract and assayed for its ability to cleave cohesin^hSCC1. […]

Experiment [2] has as its target T2, tagged human separase, wild type, with three N-terminal HA tags (human, UniProt Q14674 1-2120).
T2 construct: also called WT; wild type separase; not shown: three HA tags fused to the amino terminus
As to the kind of experiment: affinity isolation of tagged separase from metaphase-arrested transfected 293T cells, Western blot.

The target in experiment [3] is T3, catalytically inactive human separase mutant (catalytic cysteine replaced by serine), with three N-terminal … (human, UniProt Q14674 1-2120).
T3 construct: also called CS; not shown: three HA tags fused to the amino terminus
Nature of the experiment: affinity isolation of tagged catalytically inactive separase (CS, lane 2) from transfected 293T cells, Western blot.

Experiment [4] addresses T4, tagged human separase, wild type, with N-terminal ZZ-TEV4-tag (human, UniProt Q14674 1-2120).
T4 construct: It was therefore self-cleaved into about 175 and 55 kDa fragments and dephosphorylated; also called wild type separase; WT
Nature of the experiment: affinity-purified complex from transfected 293T cells.

As for `CC[C@H](CO)Nc1nc(NCc2ccccc2)c2ncn(C(C)C)c2n1` [roscovitine], the “Rescue of anaphase (sister separation and segregation) blocked in high-Δ90 extract” value in experiment [1] is listed as “rescued both events with high efficiency”.

B1: human securin co-expressed with tagged separase in 293T cells (other, UniProt O95997 2-202, looked up)
chain: ATLIYVDKENGEPGTRVVAKDGLKLGSGPSIKALDGRSQVSTPRFGKTFDAPPALPKATRKALGTVNRATEKSVKTKGPLKQKQPSFSAKKMTEKTVKAKSSVPASDDAYPEIEKFFPFNPLDFESFDLPEEHQIAHLPLSGVPLMILDEERELEKLFQLGPPSPVKMPSPPWESNLLQSPSSILSTLDVELPPVCCDIDI
notes: also called associated securin
Turning to B1, the “Molar excess of securin sufficient to fully suppress cohesin hSCC1 cleavage” value with separase is approximately 2.5 fold molar excess. Besides, the binding result in experiment [2], in experiment [3] and in experiment [4] was “binds” in each case.

The values are drawn from patent publication US20030148462A1, “Dual inhibition of sister chromatid separation at metaphase” (President and fellows of Harvard College, priority 2001, published 2003).
